# Results from US20240116985A1 (published 2024).
# Starred links: 1 amine or outer side, 2 acyl side, 3 side chain; linkers in the order of their positions; H or OH if unused. Positions of bridges follow the written chain, without caps; N, C: chain ends. Non-standard residues stand in square brackets, D forms with d. Primed or numbered codes have the meaning given here. B5(10) = 2-amino-2-(pent-4-en-1-yl)hept-6-enoic acid, bis(4-pentenyl)glycine, stitching residue bearing both staples, C=CCCCC(CCCC=C)(N[*:1])C(=O)[*:2]; B5(4) = 2,2-bis(4-pentenyl)glycine = 2-amino-2-(pent-4-en-1-yl)hept-6-enoic acid (stitching residue), C=CCCCC(CCCC=C)(N[*:1])C(=O)[*:2]; B5(5) = 2,2-bis(4-pentenyl)glycine, 2-amino-2-(pent-4-en-1-yl)hept-6-enoic acid (stitching residue), C=CCCCC(CCCC=C)(N[*:1])C(=O)[*:2]; PyrS(3) = (S)-1-((allyloxy)carbonyl)-3-aminopyrrolidine-3-carboxylic acid, stapling residue, C=CCOC(=O)N1CC[C@@](N[*:1])(C(=O)[*:2])C1; PyrS″ = (S)-1-((allyloxy)carbonyl)-3-aminopyrrolidine-3-carboxylic acid (stapling residue), C=CCOC(=O)N1CC[C@@](N[*:1])(C(=O)[*:2])C1; B5(3) = 2,2-bis(4-pentenyl)glycine (stitching residue), C=CCCCC(CCCC=C)(N[*:1])C(=O)[*:2]; B5 = 2-amino-2-(pent-4-en-1-yl)hept-6-enoic acid, C=CCCCC(CCCC=C)(N[*:1])C(=O)[*:2]; Phe(3-CF3) = N[C@@H](Cc1cccc(C(F)(F)F)c1)C(=O)O; Phe(4-CF3) = N[C@@H](Cc1ccc(C(F)(F)F)cc1)C(=O)O; Phe(3-OMe) = COc1cccc(C[C@H](N)C(=O)O)c1; 2Nal = N[C@@H](Cc1ccc2ccccc2c1)C(=O)O; αAllylPro = C=CC[C@@]1(C(=O)O)CCCN1; d(αMeL) = CC(C)C[C@@](C)(N)C(=O)O; hPhe = N[C@@H](CCc1ccccc1)C(=O)O; 4Pal = N[C@@H](Cc1ccncc1)C(=O)O; R8 = C=CCCCCCC[C@@](C)(N)C(=O)O; S8 = C=CCCCCCC[C@](C)(N)C(=O)O
# T1: full-length beta-Catenin (Uniprot ID P35222) (Homo sapiens (Human), UniProt P35222 2-781)
# T1 construct: also called B-Catenin; bCat
# T1 sequence: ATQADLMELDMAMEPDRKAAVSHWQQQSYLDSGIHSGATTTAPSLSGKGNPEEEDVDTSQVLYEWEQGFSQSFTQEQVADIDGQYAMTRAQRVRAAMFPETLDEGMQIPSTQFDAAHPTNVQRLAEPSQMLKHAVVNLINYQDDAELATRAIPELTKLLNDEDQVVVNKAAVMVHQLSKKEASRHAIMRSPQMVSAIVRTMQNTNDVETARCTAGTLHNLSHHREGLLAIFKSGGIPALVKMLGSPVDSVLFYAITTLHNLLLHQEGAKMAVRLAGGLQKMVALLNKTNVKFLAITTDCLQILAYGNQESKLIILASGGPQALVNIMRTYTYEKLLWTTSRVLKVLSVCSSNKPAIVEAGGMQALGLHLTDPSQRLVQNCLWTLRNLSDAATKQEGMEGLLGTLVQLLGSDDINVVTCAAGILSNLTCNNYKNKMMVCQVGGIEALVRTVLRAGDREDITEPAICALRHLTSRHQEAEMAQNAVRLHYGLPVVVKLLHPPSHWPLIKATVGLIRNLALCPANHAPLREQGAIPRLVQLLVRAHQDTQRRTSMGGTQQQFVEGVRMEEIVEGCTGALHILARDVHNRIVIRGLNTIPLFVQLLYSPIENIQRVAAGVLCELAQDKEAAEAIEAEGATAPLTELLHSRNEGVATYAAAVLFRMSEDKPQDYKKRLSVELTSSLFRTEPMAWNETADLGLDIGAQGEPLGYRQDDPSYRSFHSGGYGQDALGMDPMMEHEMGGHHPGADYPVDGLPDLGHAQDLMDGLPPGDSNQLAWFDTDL
# T2: full-length beta-Catenin (Uniprot ID P35222) (Homo sapiens (Human), UniProt P35222 2-781)
# T2 construct: The AlphaScreen assay used a Histidine (Nickel Chelate) detection kit, so a His tag is likely, but no tag is described; also called B-Catenin; bCat
# T2 sequence: T1 sequence
# B1: I-98 (peptide)
# peptide: Ac-FDA[R8]D[hPhe]AAFV[PyrS″]FWQ-NH2
# modifications: staple 4-11; not fully specified; printed as Ac-Phe-Asp-Ala-R8-Asp-hPhe-Ala-Ala-Phe-Val-PyrS-Phe-Trp-Gln-NH2
# notes: Stapled peptide composition; same description as I-97, separate later-eluting HPLC peak (staple isomer)
# B2: I-104 (peptide)
# peptide: Ac-FDA[R8]DDAA[Phe(3-OMe)]V[PyrS″]FWQ-NH2
# modifications: staple 4-11; not fully specified; printed as Ac-Phe-Asp-Ala-R8-Asp-Asp-Ala-Ala-3OMeF-Val-PyrS-Phe-Trp-Gln-NH2
# notes: Stapled peptide composition
# B3: I-103 (peptide)
# peptide: Ac-FDA[R8]DDAA[Phe(3-OMe)]V[PyrS″]FWQ-NH2
# modifications: staple 4-11; not fully specified; printed as Ac-Phe-Asp-Ala-R8-Asp-Asp-Ala-Ala-3OMeF-Val-PyrS-Phe-Trp-Gln-NH2
# notes: Stapled peptide composition
# B4: I-128 (peptide)
# peptide: Ac-[αAllylPro]DA[B5(10)]DEAAFV[S8]FW-NH2
# modifications: staple 1-4, 4-11
# notes: Stitched (two-staple) peptide composition
# B5: I-101 (peptide)
# peptide: Ac-FDA[R8]DDAAFV[PyrS″][Phe(3-OMe)]WQ-NH2
# modifications: staple 4-11; not fully specified; printed as Ac-Phe-Asp-Ala-R8-Asp-Asp-Ala-Ala-Phe-Val-PyrS-3OMeF-Trp-Gln-NH2
# notes: Stapled peptide composition
# B6: I-214 (peptide)
# peptide: Ac-[αAllylPro]DA[B5][4Pal]EAAFV[S8]FWQ-NH2
# modifications: staple 1-4, 4-11
# notes: Stapled (stitched) peptide composition; also called Ac-PL3-Asp-Ala-B5-4pyrA-Glu-Ala-Ala-Phe-Val-S8-Phe-Trp-Gln-NH2
# B7: I-236 (peptide)
# peptide: Ac-[αAllylPro]DA[B5(3)]DDAA[Phe(3-CF3)]V[S8]FWQ-NH2
# modifications: staple 1-4, 4-11
# notes: Stapled peptide composition; also called Ac-PL3-Asp-Ala-B5-Asp-Asp-Ala-Ala-3F3MeF-Val-S8-Phe-Trp-Gln-NH2
# B8: I-245 (peptide)
# peptide: Ac-[αAllylPro]DA[B5(4)]D[Phe(3-CF3)]AAFV[S8]FWQ-NH2
# modifications: staple 1-4, 4-11
# notes: Stapled peptide composition; also called Ac-PL3-Asp-Ala-B5-Asp-3F3MeF-Ala-Ala-Phe-Val-S8-Phe-Trp-Gln-NH2
# B9: I-244 (peptide)
# peptide: Ac-[αAllylPro]DA[B5(5)]D[Phe(3-CF3)]AAFV[S8]FWQ-NH2
# modifications: staple 1-4, 4-11
# notes: as for B8
# B10: I-233 (peptide)
# peptide: Ac-[αAllylPro]DA[B5(3)]DWAAFV[S8]FWQ-NH2
# modifications: staple 1-4, 4-11
# notes: Stapled peptide composition; also called Ac-PL3-Asp-Ala-B5-Asp-Trp-Ala-Ala-Phe-Val-S8-Phe-Trp-Gln-NH2
# B11: I-246 (peptide)
# peptide: Ac-[αAllylPro]DA[B5(4)]D[Phe(4-CF3)]AAFV[S8]FWQ-NH2
# modifications: staple 1-4, 4-11
# notes: Stapled peptide composition; also called Ac-PL3-Asp-Ala-B5-Asp-4F3MeF-Ala-Ala-Phe-Val-S8-Phe-Trp-Gln-NH2
# B12: I-216 (peptide)
# peptide: Ac-[αAllylPro]DA[B5(4)]D[d(αMeL)]AAFV[S8]FWQ-NH2
# modifications: staple 1-4, 4-11
# notes: Stapled peptide composition; also called Ac-PL3-Asp-Ala-B5-Asp-DaMeL-Ala-Ala-Phe-Val-S8-Phe-Trp-Gln-NH2
# B13: I-215 (peptide)
# peptide: Ac-[αAllylPro]DA[B5]D[d(αMeL)]AAFV[S8]FWQ-NH2
# modifications: staple 1-4, 4-11
# notes: as for B12
# Molecular target: T1, full-length beta-Catenin (Uniprot ID …)
# Assay: Alphascreen competition; biotin-TCF4(10-53) probe with full-length beta-catenin
# Protocol: (§1) Equal volume of the titrated peptide was added to the plate and incubated for 15 minutes at 20° C. Then 4 uL of donor and 4 uL acceptor beads at 10 ug/mL were added to the plate, for a 16 uL reaction pool and protected from light for 60 minutes at 20° C. prior to read. Reads were performed on a CLARIOstar plate reader (BMG Labtech) in duplicate, and data were fitted to a 1:1 binding model with hill slope using an in-house script. All provided concentrations are final concentrations.
row,EC50 [µM],Binder
1,≥ 10,"Ac-FDA[R8]DDAA[2Nal]V[PyrS″]FWQ-NH2 (staple 4-11, Stapled peptide composition) [I-112]"
2,6.2,"Ac-FDA[R8]DDAA[2Nal]V[PyrS″]FWQ-NH2 (staple 4-11, Stapled peptide composition) [I-113]"
3,3.64,"Ac-FDA[R8]D[2Nal]AAFV[PyrS″]FWQ-NH2 (staple 4-11; also: later-eluting HPLC peak (staple isomer), Stapled peptide composition) [I-116]"
4,≥ 10,B1
5,6.17,B2
6,4.95,B3
7,0.907,B4
8,≥ 10,B5
9,4.36,"Ac-FDA[R8]DDAA[hPhe]V[PyrS(3)]FWQ-NH2 (staple 4-11, Stapled peptide composition) [I-118]"

# Molecular target: T2, full-length beta-Catenin (Uniprot ID …)
# Assay: AlphaScreen competition: full-length beta-catenin + biotin-TCF4(10-53) probe, peptide titrated
# Protocol: as §1
row,EC50 [µM],Binder
1,7.21,B6
2,0.384,B7
3,2.96,B8
4,2.96,B9
5,5.9,B10
6,3.97,B11
7,≥ 10,B12
8,≥ 10,B13
